Assay results taken from patent US20210388087A1 (Chugai, published 2021).
Residue numbers refer to the chain shown, from its start.

B1: H183/L072 VL V51P (antibody, name in Kabat numbering, V domains shown)
VH: QVQLVESGGGLVQPGRSLRLSCAASGFTFSNAWMHWVRQAPGKGLEWVAQIKDKGNAYAAYYAPSVKGRFTISRDDSKNSIYLQMNSLKTEDTAVYYCHYVHYASASTVLPAFGVDAWGQGTTVTVSS
VL: DIVMTQSPLSLPVTPGEPASISCQASQELVHMNRNTYLHWYQQKPGQAPRLLIYKPSNRFPGVPDRFSGSGSGTDFTLKISRVEAEDVGVYYCAQGTSVPFTFGQGTKLEIK
notes: Dual-Ig
B2: H183/L072 VL V94N (antibody, name in Kabat numbering, V domains shown)
VH: B1 VH
VL: B1 VL with P56V, V99N
notes: Dual-Ig
B3: H183/L072 VL V94M (antibody, name in Kabat numbering, V domains shown)
VH: B1 VH
VL: B1 VL with P56V, V99M
notes: Dual-Ig
B4: H183/L072 VL V94D (antibody, name in Kabat numbering, V domains shown)
VH: B1 VH
VL: B1 VL with P56V, V99D
notes: Dual-Ig
B5: H183/L072 VL V94T (antibody, name in Kabat numbering, V domains shown)
VH: B1 VH
VL: B1 VL with P56V, V99T
notes: Dual-Ig
B6: H183/L072 VL V51S (antibody, name in Kabat numbering, V domains shown)
VH: B1 VH
VL: B1 VL with P56S
notes: Dual-Ig
B7: H183/L072 VL Y32F (antibody, name in Kabat numbering, V domains shown)
VH: B1 VH
VL: B1 VL with Y37F, P56V
notes: Dual-Ig
B8: H183/L072 VL V94I (antibody, name in Kabat numbering, V domains shown)
VH: B1 VH
VL: B1 VL with P56V, V99I
notes: Dual-Ig
B9: H183/L072 VL Y32L (antibody, name in Kabat numbering, V domains shown)
VH: B1 VH
VL: B1 VL with Y37L, P56V
notes: Dual-Ig
B10: H183/L072 VL Y32M (antibody, name in Kabat numbering, V domains shown)
VH: B1 VH
VL: B1 VL with Y37M, P56V
notes: Dual-Ig
B11: H183/L072 VL Y32N (antibody, name in Kabat numbering, V domains shown)
VH: B1 VH
VL: B1 VL with Y37N, P56V
notes: Dual-Ig
B12: H183/L072 VL V94S (antibody, name in Kabat numbering, V domains shown)
VH: B1 VH
VL: B1 VL with P56V, V99S
notes: Dual-Ig
B13: H183/L072 VL Y32G (antibody, name in Kabat numbering, V domains shown)
VH: B1 VH
VL: B1 VL with Y37G, P56V
notes: Dual-Ig
B14: H183/L072 VL V94P (antibody, name in Kabat numbering, V domains shown)
VH: B1 VH
VL: B1 VL with P56V, V99P
notes: Dual-Ig
B15: H183/L072 VL V51R (antibody, name in Kabat numbering, V domains shown)
VH: B1 VH
VL: B1 VL with P56R
notes: Dual-Ig
B16: H183/L072 VL V94K (antibody, name in Kabat numbering, V domains shown)
VH: B1 VH
VL: B1 VL with P56V, V99K
notes: Dual-Ig
B17: H183/L072 VL V94Q (antibody, name in Kabat numbering, V domains shown)
VH: B1 VH
VL: B1 VL with P56V, V99Q
notes: Dual-Ig
B18: H183/L072 VL V94W (antibody, name in Kabat numbering, V domains shown)
VH: B1 VH
VL: B1 VL with P56V, V99W
notes: Dual-Ig
B19: H183/L072 VL V51W (antibody, name in Kabat numbering, V domains shown)
VH: B1 VH
VL: B1 VL with P56W
notes: Dual-Ig
B20: H183/L072 VL Y32A (antibody, name in Kabat numbering, V domains shown)
VH: B1 VH
VL: B1 VL with Y37A, P56V
notes: Dual-Ig
B21: H183/L072 VL V94G (antibody, name in Kabat numbering, V domains shown)
VH: B1 VH
VL: B1 VL with P56V, V99G
notes: Dual-Ig
B22: H183/L072 VL V51Q (antibody, name in Kabat numbering, V domains shown)
VH: B1 VH
VL: B1 VL with P56Q
notes: Dual-Ig
B23: H183/L072 VL V94A (antibody, name in Kabat numbering, V domains shown)
VH: B1 VH
VL: B1 VL with P56V, V99A
notes: Dual-Ig
B24: H183/L072 VL V94E (antibody, name in Kabat numbering, V domains shown)
VH: B1 VH
VL: B1 VL with P56V, V99E
notes: Dual-Ig
B25: H183/L072 VL Y32H (antibody, name in Kabat numbering, V domains shown)
VH: B1 VH
VL: B1 VL with Y37H, P56V
notes: Dual-Ig
B26: H183/L072 VL V94H (antibody, name in Kabat numbering, V domains shown)
VH: B1 VH
VL: B1 VL with P56V, V99H
notes: Dual-Ig
B27: H183/L072 VL Y32I (antibody, name in Kabat numbering, V domains shown)
VH: B1 VH
VL: B1 VL with Y37I, P56V
notes: Dual-Ig
B28: H183/L072 VL V94R (antibody, name in Kabat numbering, V domains shown)
VH: B1 VH
VL: B1 VL with P56V, V99R
notes: Dual-Ig
B29: H183/L072 VL V51T (antibody, name in Kabat numbering, V domains shown)
VH: B1 VH
VL: B1 VL with P56T
notes: Dual-Ig
B30: H183/L072 VL V94L (antibody, name in Kabat numbering, V domains shown)
VH: B1 VH
VL: B1 VL with P56V, V99L
notes: Dual-Ig
B31: H183/L072 VL V94F (antibody, name in Kabat numbering, V domains shown)
VH: B1 VH
VL: B1 VL with P56V, V99F
notes: Dual-Ig

target: T1, Human CD137 ECD (human); assay: Biacore SPR, vs parent H183/L072
T1 construct: entry includes C-terminal His-tag and biotin acceptor peptide; also called human CD137 extracellular domain; 4-1BB
T1 sequence (chain, as listed by the source limits assumed): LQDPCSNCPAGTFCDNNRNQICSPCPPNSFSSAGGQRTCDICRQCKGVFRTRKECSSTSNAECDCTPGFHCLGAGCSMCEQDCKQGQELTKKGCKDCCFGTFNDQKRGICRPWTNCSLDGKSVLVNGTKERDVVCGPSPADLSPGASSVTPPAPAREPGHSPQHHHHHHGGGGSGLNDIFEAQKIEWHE

First: B1
Second: B2
The “fold change of affinity” value of the first is lower: 0 fold for the first, 0.2 fold for the second.

Going from B3 to B4, the “fold change of affinity” value falls from 0.7 fold to 0 fold.

Going from B5 to B6, the “fold change of affinity” value rises from 0.4 fold to 0.6 fold.

Compared with B7, B8 is lower in “fold change of affinity” value: 1.7 fold for the first, 0.7 fold for the second.

Compared with B9, B10 is lower in “fold change of affinity” value: 0.2 fold for the first, 0 fold for the second.

Compared with B11, B12 is lower in “fold change of affinity” value: 0.2 fold for the first, 0 fold for the second.

B13 and B14 are the same in “fold change of affinity” value: 0.1 fold for the first, 0.1 fold for the second.

First: B15
Second: B16
The “fold change of affinity” value of the first is higher: 1.4 fold for the first, 0.1 fold for the second.

First: B17
Second: B18
The “fold change of affinity” value of the first is higher: 0.8 fold for the first, 0 fold for the second.

B19 and B20 are the same in “fold change of affinity” value: 0.1 fold for the first, 0.1 fold for the second.

Compared with B21, B22 is higher in “fold change of affinity” value: 0 fold for the first, 0.8 fold for the second.

Compared with B23, B24 is lower in “fold change of affinity” value: 0.1 fold for the first, 0 fold for the second.

Compared with B25, B26 is higher in “fold change of affinity” value: 0.1 fold for the first, 1.8 fold for the second.

Compared with B27, B28 is higher in “fold change of affinity” value: 0 fold for the first, 0.4 fold for the second.

First: B29
Second: B30
The “fold change of affinity” value of the first is higher: 0.6 fold for the first, 0.3 fold for the second.

In the case of B31, the “fold change of affinity” value is reported as 0 fold.
